Measured values: the supplement of paper PMC12042874
± gives the uncertainty stated by the source.

Assay: amyloid nucleation score (Sup35N fusion, yeast selection) (log enrichment); library NNK1; higher = more nucleation; inactive = no reads after selection
Procedure, shortened: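 Sup35N was fused to peptides of 20 random codons and expressed in psi-negative yeast, which were induced with 100 μM copper sulfate for 24 hours and then grown on medium lacking adenine and uracil for 7 days at 30°C. Plasmid inserts from input and output were sequenced on Illumina. The nucleation score is the DiMSum log enrichment of output over input reads, centred on the mode score of non-aggregating sequences. Sequences with under 100 input reads were left out, and random libraries had three technical output replicates.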

Substance	amyloid nucleation score
MWSYNLYNLVVTS	1.1 ± 0.28
IGDGSFYGLRQRQEARGKRA	-0.437 ± 0.73
LLGRLVQCCRPWY	-1.17 ± 2.7
SAGVTPLEMKSDRIREDAAG	0.629 ± 1
YVDLFIMPIACGTSVMHLNL	5.464 ± 0.047
PYAAGENWWMCLQRVPVTIV	0.027 ± 0.67
TSLRFLSVRS	0.011 ± 0.49
CLFSRELTLSPLWDLVK	1.79 ± 0.15
LFHLPSVYIWFYAT	6.723 ± 0.053
IVLTHYGSVLFHSYKGYFMW	-0.197 ± 0.29
LSYNTISGFIAYIIDMSPFV	inactive
TVSDHPSFFCVYCADSSVGM	7.439 ± 0.073
PTRDCRVNKGSLMWTP	-0.213 ± 0.59
NVPIPRAFRDNRTL	0.577 ± 0.5
VVVCSNLMYLNCNWAATNNL	7.163 ± 0.047
VPLGSDSNHNANVTCYFASA	-0.078 ± 0.37
CIFAYKCSIYERESL	0.776 ± 0.49
SIPLCTLESQSEKVTWISDQ	0.325 ± 0.78
QRHSLNDNCRCLRYPQHSPN	1.07 ± 0.73
CHNVVLFVVTQSMCEVSGGW	inactive
YSVLCIMRTLHAEIWFTGGI	-0.023 ± 1.4
RVQKNLINDFSESYPLCHWY	-0.553 ± 0.42
IISMLFAFIGQSIIVQVVRC	0.316 ± 0.26
IFNCVVLFSNTFMGYRFPFH	6.273 ± 0.045
VLKCHSGSCRIYTNDSYVAL	0.387 ± 0.17

Substance	amyloid nucleation score
VFGLAV	-0.912 ± 1.1
RYCQVP	0.348 ± 0.43
ERYKY	0.601 ± 0.61
VAKSRCYTQCGLGYLSRKLA	inactive
RFVIVEVSWLDSLLRLSWED	0.277 ± 0.99
SNNHQFFCDTFDIGWWEVGR	-1.63 ± 2.4
IRVTAEICYLLKHTVMGRMR	0.523 ± 0.34
DIVSVVVWLKQYLWFEQWNV	0.644 ± 0.81
RFIYE	-0.543 ± 0.82
GLVSSSLGGYVDADSYFECD	inactive
SIRTLQDNSTSSENFKVESV	0.273 ± 0.64
TLRVIAVVDTFSRVYFR	3.58 ± 0.12
ALFCDDEYRRDYW	0.192 ± 0.31
CNICNPI	-0.585 ± 1.6
AGCVPMGEGLGTLESNYSKY	0.637 ± 0.52
TRNVSVTAVMED	0.938 ± 0.81
NSIFLLSYLKLIFAVYA	inactive
FISAACEEPVTFMGNYGGYG	0.02 ± 0.53
NLICDLGNSVTMSVRDDQTV	-0.013 ± 0.36
NCTARMKVGFAGFSFTLWIA	0.533 ± 0.56
LQFNMVYVCYGWSSVYARSG	0.409 ± 0.28
LPFGGAWVSLCLLRVICILR	inactive
RLLLYG	inactive
NYFTRFVTGDGLSFLMRVAT	0.487 ± 0.82
SRFKPWGGSFVGYCVLYGRL	-1.01 ± 0.71

Substance	amyloid nucleation score
DYNLVSRYVEPSRLVGFLRI	-0.226 ± 0.73
SEYAVNSGSITFFIHAVWCW	0.349 ± 0.26
LIGFAGRVYGAFLQVSMTWN	3.2 ± 0.15
RSLFMAQVGHMWGRNVIRGI	-0.29 ± 1.7
LGRRIPCNLEWHHLDGALTR	0.013 ± 0.36
RLFWLRNLPLWASYK	0.07 ± 0.47
SFRCMEYSWGDWVINPPYLS	0.234 ± 0.62
LNQRWCCFTISALR	7.702 ± 0.076
WAHGLLFSYDSLHWYYICKV	0.304 ± 0.44
AIDRRLYMGYSSWNEQDCEV	inactive
GWNRTTSHWIRVFYCAVLVC	-0.346 ± 0.53
TFKYFDSLTLPDLYIVVHGS	0.037 ± 0.2
RRILGRYRC	-0.129 ± 1.1
KKWHNVIGARDLSRIYSIA	inactive
VRHTQHRSSL	-1.62 ± 1.3
GFFYEWRVYCPAWINALWWH	0.193 ± 0.77
LHIIRRNRDSIAFVYWTV	0.756 ± 0.41
KHRFCSIEWVK	1.31 ± 0.71
SIGWYTQGRYVGMCHRN	0.251 ± 0.53
TRFMMRVRIVSDCDTVNFAC	-0.379 ± 0.62
VSVSRGRTFSFSIGSYRIGR	3.11 ± 0.091
PHFLGQFYSDVPCDCGLCWY	0.193 ± 0.9
PKMGSGHSWTRGQYICHS	-0.301 ± 1.1
STKSTQDSSSDFIAVCGKRE	0.925 ± 1.1
FQSLGTFLDIQLCGHNLVAE	0.537 ± 0.34

Substance	amyloid nucleation score
FHTNMTVSYQTKLVLDRYWN	3.42 ± 0.14
CSTQRVPGGGLGKSWL	0.18 ± 1.2
IILGL	0.006 ± 0.73
KTGTYWKSDGCVLWFGVKPA	0.32 ± 0.38
VGIGLSFQTEQSVCTDLLYS	-0.203 ± 0.69
LFYLFPELMWDMQLCKVDGW	1.4 ± 0.44
SLVASNSQL	0.06 ± 0.45
AGSNSFIFFLVRFFVRALGR	-0.67 ± 0.34
NYRSGVLELWYGRSMPWS	0.327 ± 0.42
LDFMSLHN	0.218 ± 1
YVLKCKNILMYEYLNEVKIS	0.219 ± 0.27
IKWSGVVASGGDNPLTDHSR	-0.05 ± 0.71
SLGCYCRVKIVWVCILGYTA	0.526 ± 0.27
YFFCVFI	8.469 ± 0.072
SLYRIFRKASFESCGLEWFA	0.191 ± 0.66
YTRRVTNDVNNFGTFTRMSS	1.02 ± 0.27
LRCRQKKYAAYRGTAVYWLL	-0.236 ± 0.76
HVFVLLPSKFADLLKKPVLL	-0.894 ± 1.7
RKYQQGSLHDSGIKNHFFRV	-0.97 ± 1.7
LLTTIGQTRMVIHKGIERNE	1.77 ± 0.14
VSRMP	3.21 ± 0.12
GYISRHNAGSSAPVNVVRLR	-0.223 ± 0.65
WGCDLEAALY	0.016 ± 1.7
NYQWIRIVIMYVLSMTASLS	inactive
TLCREEVETRLEATFCGCTN	0.979 ± 0.84

Substance	amyloid nucleation score
REGNVSYYSFGL	-1.48 ± 1.4
LTSRNYESIY	-0.159 ± 0.24
MRQWSGQG	0.758 ± 1
SYYYHV	1.17 ± 0.66
LLYISSTVM	1.07 ± 0.38
QFVMINYSSSNVASPNLLRI	0.94 ± 0.3
YRFSGEGALLASKWLINNCT	-0.224 ± 0.4
CVYGGIFYRTGYLYFEVYFY	0.134 ± 0.31
RSSSDKPSKTTTWRMLAGTG	-0.113 ± 0.7
SLSQFSKPGYICVNMVCSQA	1.36 ± 0.48
HHINWPGCVSRNSYKAIYDG	-0.262 ± 0.84
SGYSRGKEEQKHQFA	0.137 ± 0.6
VPSLSPFGRKMFHIRSL	inactive
IGWNFAFVSGILVW	inactive
CVMYSRGFYCADCVCNLMPC	4.85 ± 0.053
GLLSRNLVLRGLNSGNWPFG	inactive
RINVYII	3.25 ± 0.19
SGTRFLFEPSELINPYNHRC	1.15 ± 0.68
AIYMLHRNGGGGVCEAEAVR	-0.38 ± 0.69
IAFTVWADWYLPKLGLIREL	0.508 ± 0.74
SPCWSHF	inactive
WNCLCSGLTC	6.806 ± 0.055
LSIAHYGLNQSMSVRYREST	0.771 ± 0.66
LGTVRVLEHEVVWHYVLEAR	0.485 ± 0.6
ILCLKTDGLGDESRGVSEAG	0.27 ± 0.75

Substance	amyloid nucleation score
IICLVNMDLCKSR	3.9 ± 0.16
IEWRVKLRLLRCQYID	-0.507 ± 0.34
TGYGVAVGPFVGGDF	-0.548 ± 1.5
MKIVNVHAWATQLARGDICE	0.745 ± 0.83
RIIITLH	0.264 ± 0.31
HRCGLPASFIHHFVCDRAVG	-0.686 ± 1.4
RCMMPYGESKSGVLMGRYSY	0.393 ± 0.31
PVKGGVMGF	-0.35 ± 1.4
PLFNNSRRCWGFGSLEDYLL	0.213 ± 0.53
VDCPIECTAAGRSHDSGV	1.42 ± 0.63
SLLDWCYINRHM	0.604 ± 0.44
WFYPWVLVWTLSCCVSRHKG	4.35 ± 0.14
TILGVITKIVQTLLWMPWVA	-1.37 ± 0.9
TSINWFRTVLYGVSLNYFWV	0.345 ± 0.6
TPNQSRFPNAVMTDTVTSFS	0.214 ± 0.81
CSRNTSVA	1.01 ± 0.57
MFNHV	0.807 ± 1
HFIFEYTSFSS	0.307 ± 0.29
CCVGRALCHNVVS	0.594 ± 0.55
VTKFLWYIPGPKIGRFYLSN	0.43 ± 0.38
LGSVDIRAQCLVNMNMLLSS	0.308 ± 0.43
DRMLHKAI	-0.624 ± 1.5
RWGMFTWVYFMLYALWIMTL	0.042 ± 0.44
IKYFVLAWTSDPLTYVTVTS	0.953 ± 0.46
CMSVETLTEMVYFKSYTL	0.257 ± 0.42

Substance	amyloid nucleation score
RIGGETGCV	0.216 ± 0.27
DLVYC	-0.307 ± 0.52
TSRGKDLSTRVGGGAPPGFR	-0.766 ± 1.6
SKTRVLM	-0.374 ± 0.41
VSVTLLFFTVPIQGRVMQFS	0.148 ± 0.29
RRPENKCYHPLVCDFVAVWF	0.476 ± 1.1
WVFVNYWSGSKNQ	2.96 ± 0.14
TGKAVTSGWKNIVSSITSQR	-0.434 ± 0.58
VKGQHFQLKIVRRLRTFRHH	3.79 ± 0.066
VVWWGEQHGLYSYFGHGIGI	0.968 ± 0.63
VPCGKLIISGGVQNCIYYWE	7.306 ± 0.056
VALAIIRPY	-0.431 ± 0.27
CLGVSSGRLKCYVNYYCDNW	0.106 ± 0.51
YLFPDVTRICCMGWSFTLLS	5.27 ± 0.053
VYSFDMM	0.256 ± 0.52
RLSSSCSSAEDWYRKGHLLK	-0.063 ± 0.4
CFYFMECLV	-0.254 ± 0.59
RMSLLYLSSVKLFNWHAALG	-0.465 ± 0.6
KFCLDLSYLFSSRTVMYEIV	-0.24 ± 0.26
NSCNDRFHLAMRQGF	0.067 ± 0.84
WDFDYSMCVLYMVTAIRLWR	-0.26 ± 0.54
